Experimental data from paper PMC9568614.
“And” between values parts separate entries of the source, which are not always exact repeats. Identical values can stand only once.

Experiments:
[1] = target: FcRn coupled to the FcRn Affinity Column (Roche) (UniProt P55899); assay: FcRn-affinity chromatography; FcRn Affinity Column (Roche); antibody or fragment injected at pH 5.5 (20 mM MES, 150 mM NaCl), pH gradient to pH 8.8 (20 mM Tris-HCl, 150 mM NaCl); elution pH read
[2] = target: Fc-MST-HN (IgG1 Fc fragment with M252Y, S254T, T256E, H433K, N434F) (human); assay: crystal structure; Fc-MST-HN with EndoH- and thrombin-treated FcRn:beta2M, complex isolated by preparative SEC; crystals from 0.1 M sodium cacodylate pH 7.0, 293 K
Fc-MST (human) = assay: ITC; 37 °C, PEAQ-ITC; as drawn in the figure FcRn:b2M titrated into the Fc (reverse setup: 6 uM in the cell, 165 uM in the syringe); fit A + B + B with 2 symmetric sites, macroscopic K (Sedphat); buffer and pH not stated; four runs for Fc-MST-HN (values averaged), one for Fc-YTE
[3] = target: recombinant human FcRn (FcRn alpha-chain with C-terminal BirA 10x-Histidine tag, with beta-2-microglobulin) (human) (UniProt P55899); assay: SPR
[4] = target: recombinant human FcRn (FcRn alpha-chain with C-terminal BirA 10x-Histidine tag, with beta-2-microglobulin) (human) (UniProt P55899); assay: SPR; pH 7.4
[5] = target: recombinant human FcRn (FcRn alpha-chain with C-terminal BirA 10x-Histidine tag, with beta-2-microglobulin) (human) (UniProt P55899); assay: SPR; pH 6.0
[6] = target: anti-HEL IgG1-MST-HN (human); assay: SPR; IBIS MX96; IgG or Fc randomly coupled on a SensEye G Easy2Spot array at four spotting concentrations (60, 30, 15, 7.5 nM); monomeric human FcRn injected 0.49-1000 nM in PBS, 0.075% Tween 80, pH 6.0; equilibrium analysis, Langmuir 1:1 model; one KD for each spot (with its RU), later interpolated to Rmax = 700 RU
Fc-MST-HN (human) [7] = assay: as above
anti-HEL IgG1-WT (human) = assay: as above
Fc-WT (human) = assay: as above
Fc-MST-HN (human) [8] = assay: SPR; IBIS MX96; IgG or Fc randomly coupled on a SensEye G Easy2Spot array at four spotting concentrations (60, 30, 15, 7.5 nM); monomeric human FcRn injected 0.49-1000 nM in PBS, 0.075% Tween 80, pH 7.4; equilibrium analysis, Langmuir 1:1 model; one KD for each spot (with its RU), later interpolated to Rmax = 700 RU

Fc-MST-HN (IgG1 Fc fragment with M252Y, S254T, T256E, H433K, N434F) (domain or fragment)
elution pH [1]: 8.7 pH

Fc-WT (wild-type human IgG1 Fc fragment) (domain or fragment)
elution pH [1]: 7 pH

FcRn:beta2M (FcRn residues 1-297 with beta-2-microglobulin residues 1-119), EndoH-treated, tags removed by thrombin (from UniProt P55899 24-297; P61769 21-119) (complex)
stoichiometry N [2]: 2 FcRn per Fc

FcRn:ß2M (recombinant extracellular domain of human FcRn in complex with beta-2-microglobulin, as used for ITC) (from UniProt P55899 24-297; P61769 21-119) (receptor)
Kd (Fc-MST (human)): 66.2 nM

anti-HEL IgG1-MST-HN (full-size IgG1) (antibody)
elution pH [1]: 8.7 pH

anti-HEL IgG1-MST-HN (full-size IgG1) (from UniProt P01857)
Kd [3]: 39 nM | Kd [4]: 899 nM

anti-HEL IgG1-WT (full-size IgG1) (antibody)
elution pH [1]: 7 pH

anti-HEL IgG1-WT (full-size IgG1) (from UniProt P01857)
Kd [3]: 381 nM

anti-biotin IgG1-WT (from UniProt P01857)
Kd [5]: 200 nM

recombinant human FcRn (FcRn α-chain with ß2-microglobulin) (from UniProt P55899 24-297; P61769 21-119) (receptor)
Kd [6]: 37 nM and 34 nM | Kd (Fc-MST-HN (human) [7]): 37 nM and 34 nM and 32 nM | Kd (anti-HEL IgG1-WT (human)): 600 nM | Kd (Fc-WT (human)): 240 nM and 270 nM | Kd (Fc-MST-HN (human) [8]): 1150 nM and 1040 nM and 830 nM
